Experimental data as given in the supplement of paper PMC12764529.
± gives the half width of the 95% confidence interval.

Key:
[1] = folding stability dG unfold from chymotrypsin proteolysis; higher = more stable
Outline: (§1)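 Bayesian fitting of sequencing counts gave K50 for each design. Unfolding free energy followed by setting this against a sequence-predicted unfolded-state K50 and a shared folded-state K50, either per protease or with trypsin and chymotrypsin combined. The designs, under 80 residues and lacking cysteine, were digested in a PA-tagged cDNA display format at 11 threefold-diluted protease concentrations and without protease, and only those with AlphaFold2 dimer inter-PAE above 15 were kept.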

[2] = folding stability dG unfold from trypsin proteolysis; higher = more stable
Outline: as §1

[3] = folding stability dG unfold (combined trypsin and chymotrypsin); higher = more stable
Outline: as §1

| Sequence | folding stability dG unfold [1] | folding stability dG unfold [2] | folding stability dG unfold [3] |
| --- | --- | --- | --- |
| SAGGTIYIFIPGLTAEEILKFIAEEFPGHENVTIFWPKGYYVKITVDNGNIKIDKVQPMRPMPPGDPSAGGS [r8_225_TrROS] | 3.31 ± 0.026 kcal/mol | 2.52 ± 0.073 kcal/mol | 2.99 ± 0.084 kcal/mol |
| SAGGTKTINIKNMPPNDPERMVRTARHLLKELKQKGPGKTITIHMDNPWAREVAEYLKKEGIPIEVHSAGGS [r16_450_TrROS] | 1.09 ± 0.15 kcal/mol | 0.581 ± 0.17 kcal/mol | 0.947 ± 0.14 kcal/mol |
| SAGGTLKVTEEEVSESEFESPGLPLRRTTTTYTLVDPVTGKPVPTSKKVTVETLETPEGRVLETVVTSSAGG [r13_24_JUSTAS] | 0.0434 ± 0.14 kcal/mol | -0.45 ± 0.24 kcal/mol | -0.0697 ± 0.13 kcal/mol |
| SAGGTRTIWFPVDDIREALPPDNIKKVEVEPVGPENNWYKVTIEFPDYKIEIQYYPEEPGMFMVTITDSAGG [r13_942_TrROS] | 2.71 ± 0.043 kcal/mol | 0.791 ± 0.085 kcal/mol | 2.13 ± 0.29 kcal/mol |
| SAGGTVEEIKEKLEEAGWEVVKVEKKEDGSITVTVRRKDGKELKIEIDLKNEEVRKALAELLPEEELSAGGS [r16_821_TrROS_Hall] | 3.22 ± 0.13 kcal/mol | 2.42 ± 0.19 kcal/mol | 2.95 ± 0.15 kcal/mol |
| SAGGTVTLTLELTVKVKRKDGKTETKKVTLTITVEVKEGETVYTPDGKKIKPGKSAEELAKELLKKLSAGGS [r16_440_TrROS_Hall] | 1.28 ± 0.12 kcal/mol | 1.17 ± 0.089 kcal/mol | 1.27 ± 0.32 kcal/mol |
| SAGGTVTTEEVDDATYITVTKPSGETLTITAPALPDDTYLVTVYDPKTGKSTTKTVSSLDEAIKLLGSAGGS [r8_230_JUSTAS] | 1.83 ± 0.019 kcal/mol | 2.2 ± 0.076 kcal/mol | 2.08 ± 0.098 kcal/mol |
| SAGGVIMIPADEILDMIEQNPDEPKTIFARPNNRMVMFTLKIDPDKPDNIEIDNVWRYDPNGKGEHLPSAGG [r13_481_TrROS] | -0.475 ± 0.31 kcal/mol | -0.526 ± 0.47 kcal/mol | -0.365 ± 0.22 kcal/mol |
| SAGGVITAEQLRDLVKTLPPDYTIRVKVYYSTSTEEYTITPDNPIKFPPNAPTETITRIEVVEISPDSAGGS [r16_97_TrMRF] | 4.43 ± 0.045 kcal/mol | 3.87 ± 0.088 kcal/mol | 4.33 ± 0.068 kcal/mol |
| SAGGVLPSDPVTVTVTIPVPAANAETDGRLPPQPQTINLEIGGPSEEAIRALLEALFPPGTEYEILLSAGGS [r16_282_JUSTAS] | 0.691 ± 0.034 kcal/mol | 1.77 ± 0.064 kcal/mol | 1.32 ± 0.06 kcal/mol |
| SAGGVPVPPEVEYPISPEAVELAEKLAPELGAKNFKVTVVSVEPGYITVEITLPDTGKTVTVTIPLGSAGGS [r16_281_JUSTAS] | 1.987 ± 0.015 kcal/mol | 1.5 ± 0.041 kcal/mol | 1.82 ± 0.053 kcal/mol |
| SAGGVRYRNPLTGVEIPPDATEEERAAIARAVAKPVVLPVTVPVYVEEGDVVVPVERTFHVPLGPDGSAGGS [r16_387_TrMRF] | 0.0948 ± 0.12 kcal/mol | 0.22 ± 0.085 kcal/mol | 0.206 ± 0.083 kcal/mol |
| SAGGVTVSLSDPLSGNITTVPVAPNSTVTVTTSASLGGPNYTITTTVTVTLNGSTPVFTITSTVTPLSSAGG [r19_331_JUSTAS] | 3.54 ± 0.071 kcal/mol | 3.08 ± 0.16 kcal/mol | 3.41 ± 0.17 kcal/mol |
| SAGGVVEVEVPDLSLEEALERVREEYPDVPEFTLTLPSGERVEFRVEGDRVEVVRREPLGPRPPELESAGGS [r8_225_JUSTAS] | 1.51 ± 0.029 kcal/mol | 1.63 ± 0.1 kcal/mol | 1.54 ± 0.066 kcal/mol |
| SAGGVVTFLPGNLIKTTYFDPEKGTRTETLYYVPPDGTTTKLKTTVTPIPPTPLERPFFFGPDDVPVLSAGG [r13_646_JUSTAS] | 0.306 ± 0.21 kcal/mol | 0.517 ± 0.059 kcal/mol | 0.474 ± 0.15 kcal/mol |
| SAGGVVYYATFTIYDPKRKLPNGELAYEETPIYKKFDPKEIEKFIKELKDKLKKEGRKIKAEITKVLSAGGS [r8_10_JUSTAS] | 1.77 ± 0.29 kcal/mol | 1.28 ± 0.15 kcal/mol | 1.45 ± 0.4 kcal/mol |

| Sequence | folding stability dG unfold [1] | folding stability dG unfold [2] | folding stability dG unfold [3] |
| --- | --- | --- | --- |
| SAGGVWIEITFLMPAEQLLNFIKNLAEEFGYQVNIDVKIQPYPNGPMVTHEIEIKPLPPKVPEEDQESAGGS [r16_262_TrROS] | 3.99 ± 0.1 kcal/mol | 2.5 ± 0.13 kcal/mol | 3.6 ± 0.16 kcal/mol |
| SAGGWFTWDIPVKADDPKEAVDYAKEQIKNIMREHHPGMPPGMKIDDIKVEPPPNGWYWVKITIEIDPPSAG [r5_320_TrROS] | 2.59 ± 0.083 kcal/mol | 1.83 ± 0.083 kcal/mol | 2.29 ± 0.15 kcal/mol |
| SAGGWQKVEFMIEIPGGGSLDQAKDEVEEFADYLRKKAGFKDVDVDVQVDPDGWVYVMVEIEVPPNASAGGS [r8_3_TrROS] | 2.24 ± 0.042 kcal/mol | 1.06 ± 0.04 kcal/mol | 1.87 ± 0.062 kcal/mol |
| SAGGWYIRIKEIERNNDGVNIDIQIPDPDDPEFFENIAENLAQKLGMPKENIKIRIEPTPMPPDPEEPSAGG [r13_430_TrROS] | 0.0789 ± 0.35 kcal/mol | 0.248 ± 0.13 kcal/mol | 0.247 ± 0.23 kcal/mol |
| SAGGYDFDPRGEFPFPNGVKVEVWEMTWPDGNPMTMIEIEATIPPPPKPPMSPEDAKENNKDMAKNNSAGGS [r16_8_TrROS] | 0.403 ± 0.16 kcal/mol | -0.415 ± 0.12 kcal/mol | 0.211 ± 0.21 kcal/mol |
| SAGGYIPASARIEVLEVFEDGTVRVRVTYPDGSEAEVVARLVRTADGRVYLEIFDPRTGRLLATLELTSAGG [r13_527_TrMRF] | 3.81 ± 0.054 kcal/mol | 4.09 ± 0.09 kcal/mol | 3.88 ± 0.092 kcal/mol |
| SAGGYKFTIIARFDSVEEAKEWVEEIIRDIFPDNGIEVEVEVETDPENGGVYVKATIEVPPPDPDDFSAGGS [r8_17_TrROS] | 4.36 ± 0.23 kcal/mol | 2.98 ± 0.17 kcal/mol | 4.01 ± 0.3 kcal/mol |
| SAGGYKITIPAMFDTPEDALDQVREIARSLGYRITDIKNVEVHKHEDNGMVMVEATIKIEPLPKGQLSAGGS [r16_155_TrROS] | 2.07 ± 0.074 kcal/mol | 1.77 ± 0.042 kcal/mol | 1.97 ± 0.12 kcal/mol |
| SAGIEEEVRKLFPDRELEVKVKEKRLKAPNGVPVTLYEVTVTFPDGSRYKLTLTKTPNSVTLSVTPLDASAG [r14_28_JUSTAS] | 3.34 ± 0.035 kcal/mol | 2.73 ± 0.2 kcal/mol | 3.18 ± 0.17 kcal/mol |
| SAGIFRFPDGQEITIPYYARTPNGKITPSEIKEQIKEFLAEQPGVKITEIEVEHEDNYVRVTITVRLPKSAG [r5_688_TrROS] | 0.316 ± 0.42 kcal/mol | 1.46 ± 0.14 kcal/mol | 1.01 ± 0.21 kcal/mol |
| SAGISIRFPGMQIEIDEIERDNNKVVIRVEVTMPAKNPNGQPQMMTHTMWIVIKIPPPPPPADPADAKKSAG [r5_70_TrROS] | 3.96 ± 0.053 kcal/mol | 2.81 ± 0.12 kcal/mol | 3.51 ± 0.23 kcal/mol |
| SAGITIIIRGPDAKEAAEDIAKELLKNGFKRPITVHVLDPDGKPWYRIKIQFDPKNPGKIKVKVEPYDSAGG [r19_85_TrROS] | 3.66 ± 0.042 kcal/mol | 3.39 ± 0.089 kcal/mol | 3.65 ± 0.076 kcal/mol |
| SAGITITVPPGKPYYVHITMYMFDPNGKLMGPQTIMFPIRVPPDDTIEIPIPFDSPNIRITDISIMPKSAGG [r19_295_TrROS] | 2.54 ± 0.094 kcal/mol | 1.98 ± 0.058 kcal/mol | 2.4 ± 0.16 kcal/mol |
| SAGIVIPINNPEQAEELAKEFAPEYGYEVEIERVPPGEPLEELPPNDIIVHDPDSGWFYKIKIKRPDEKSAG [r5_173_TrROS] | 0.134 ± 0.43 kcal/mol | 0.38 ± 0.1 kcal/mol | 0.29 ± 0.24 kcal/mol |
| SAGKDGDPPKRVRIKFKIPLPGGKLYEVTQTFYPNGSVHVSIRFPNGWMLSAWIPPDGDIEIKIMPIKKSAG [r5_168_TrROS] | 4.3 ± 0.14 kcal/mol | 3.37 ± 0.21 kcal/mol | 4 ± 0.23 kcal/mol |
